Laboratory results from patent US20240239877A1.

B1: CD4 B Adnectin (anti-CD4 Domain 4 Adnectin) (designed binder)
chain: MASTSGSASYLIPSDLEVVAATPTSLSIYWYPVASTIINFRITYVETGGNSPVQEFTVPGSKSTATISGLKPGVDYTITVYAVHYEQKYSEYWIGHPISINYRTEGSGSHHHHHH
B2: CD4 A Adnectin (anti-CD4 Domain 2 Adnectin) (designed binder)
chain: GVSDVPRDLEVVAATPTSLLISWDAPAVTVHSYHIQYWPLGSYQRYQVFSVPGSKSTATISGLKPGVEYQIRVYAETGGADSDQSFGWIQIGYRTP

Target: 123 different clinical envelope proteins
Assay: cell-based or functional assay

Binder	Geometric mean EC50 (nM), cell-cell fusion assay [nM]	Geometric mean EC50 (µg/mL), cell-cell fusion assay [µg/mL]	Median EC50 (nM), cell-cell fusion assay [nM]
B1	163	1.8	1300
B2	5.5	0.006	5.3
